Assay results as given in the nanobody polyreactivity screen of Harvey et al. (2022).

Assay: yeast display, Sf9 membrane polyspecificity reagent, FACS + sequencing; frameworks hold sequencing errors
Method in brief: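 Synthetic nanobody libraries on Saccharomyces cerevisiae BJ5465 were galactose-induced for 36–48 hours, stained 1 hour at 4 °C with 10% biotinylated, detergent-solubilized Sf9 membrane reagent and enriched on streptavidin microbeads. FACS then separated cells into low and high (top ~1%) gates by anti-HA (expression) and streptavidin (reagent binding) fluorescence. Genes were colony-PCR amplified, MiSeq 2 × 250 sequenced and CDR-length filtered. A clone's polyreactivity label is that of its gate of origin.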

Row | Sequence | polyreactivity (PSR sort gate)
1 | QVQLVESGGGLVQAGGSLRVSCAASGRTFGRYAMGWYRQATGKERELVAAISYSGGSTYYADSVKGRFTISRDNAKNNVYLQMNSLKPEDTAVYYCAAYYSGKDGYWGQGTQVTVSS | high polyreactivity
2 | QVQLVESGGGLVQAGGSLRLSCAASGRIFYYYAMGWYRQAPGKERELVAAISAGGGRTYYADSVKGRFTISRDNAKNTVYLQMNSLKPEDTAVYYCAVGRRIPGKYTSFGYWGQGTQVTVSS | high polyreactivity
3 | QDQLVESGGGLVQAGGSLRLSCAATASIFVTYAMGWYRQAPGQERELVAAINYSGGSTYYADSVKGRFTISRDNAKNTFYLQMNSLKPEDTAVNYCAADERVDQGWIRMDYWGQGTQVTVSS | low polyreactivity
4 | QFQLVESGGGLVQAGGSLRLRCAASGLIIKKYTMGWYRQAPGKEMELVASISKSGGSTYYADSVKGRFTISRDNAKNTVYLQMNSLKPEDTAVYYCNRVTHYIRFDYWGQGTQVTVSS | low polyreactivity
5 | QVQLVESGGGLVKAGGSLRLSCAASGSNFNPYAMGWYRQEPGKQRELVAAITGSGRSTYNSDSVKGRFTISRDNAKNTVYLEMNSLKPEDTAVYYCNRARILVWSKYGYWGQGTQVTVSS | high polyreactivity
6 | QVQLVESGGGLVQAGGSLRLSCAASGIIFYFYAMGWYRQAPGKERELVAAITSSGGSTYYADSVKGRFTISRDNAKNTVYLQMNSLKPEDTAVYYCAADSLHGRKFRGVDYWGQGTQVTVSS | low polyreactivity
7 | QVQLVESGGGLVQAGGSLRLSCAASGFISFDNAMGWYRQAPGKERELVAAIRSGGSTNYADSVKGRFTISRDNAKNSVYLQMNSLKPEDTAVYYCAALDQYGYYQKYYYWGQGTQVTVSS | low polyreactivity
8 | QVQLVESGGGLVQAGGSLRLSCAASGSTFGANAMGWYRQARGKEREFVAAISRSGVRTYYADSVKGRFTISRDNAKNTVYLQMNSLKPEDTAVYYCAADGYWWTYTRYDYCGQGTQVTVSS | low polyreactivity
9 | QDQLVESGGGLVQAGGSLRLSCAASGSITAPYAMGWYRQAPGKERELVAAISYSGGSTNYADSVKGRFTISRDNAKNTVYLQMNSRKPEATAVYYCAARGYSGYRTSPLARYDYWGKGTQVTVSS | high polyreactivity
10 | QVQLVESGGGLVQAGGSLRLSCAASGSTIYWYAMGWYRQAPGKERELVAAISLSGGSTYYADSVKGRFTISRDNAKNTVYLQMNSLKPEDTAVYYCAARTSYYVYRHPSGRYDYWGQGTQVTVSS | low polyreactivity
11 | QVQLVESVGGLVQAGGSLRLSCAASGFIFKGNAMGWYRQAPGKERELVAAITNRGGGTYYADSVKGRFTISRDNAKNTVYLQMNSLKPEDTAVYYCAKAYTRPFHPYDYWGQGTQVTVSS | high polyreactivity
12 | QVQLVESGGGLVQAGGSLRLSCAASGSIFQCYTMGWSRQAPGKERELVAAISSTGSTNYADCVMGRFTISLDNAKNTVYLQMNSMNPEDTAVFYCAGVGTYLAGYQFDYWGQGTQVTVSS | low polyreactivity
13 | QVQLVESGGGLVQAGGSLRLTCAASGGIFTDYTMGWYRQAPGKERELVSAITWTGGSTYYADSVKGRFTISRDNAKNTVYLQMNSLKPEDTAVYYCYVVKYVYIYSYWEYYFWGQGTQVTVSS | low polyreactivity
14 | QVQLVESGGGLVQAGGSLRLSCAASGFTFRYYAMGWYRQAPGKERELVAAISAGGSTYYADSVKGRFTISRDNAKNTVYLQMNSLKQEDTAVYYCTARYQGFVITYYYWGQGTQVTVSS | high polyreactivity
15 | QVHLVESGGGLVQAGGSLRLSCAASGSIFRSYAMGWYRQAPGKERELVAGISWSGGSTYYADSVKGRFTISRDNAKNTVYLQMNSLKPEDTPVYYCDADIKIRLYTTGDYWGQGTQVTVSS | low polyreactivity
16 | QVQLVESGGGLVQAGGSLRLSCAASGRIFYANDMGWYRQAPWKERELVAAITNTVSTTYADSVKGRFTISRDNAKNTVYLQMNSLKPEDTAVYYCNGDDPYVPKADMGYWGQGTQVTVSS | low polyreactivity
17 | QVQLVESGVGLVQAGGILRLSCAASGRIFNGYALGWYRQAPGKERELVAVITWNGGSTYYADSVKGRFTISRDNAKNTVYLQMNSLKPEETAVYYCADRRTGYYGTRDYWGQVTQVTVSS | high polyreactivity
18 | QVQLVESGGGLVQAGGSLRLSCAASGMIFKFYDMGWYRQAPGKEREWVASISWSGGRTYYADSVKGRFTISRDNAKNTVYLQMNSLKPEDTAVYYCAAGRYYGYGYWGQGTQVTVSS | high polyreactivity
19 | QVQLLESGGGLVQAGGSLRISCAASGSTFVRYPMGWYRQAPGKERELVAGISSGDRTYYADSVKGRFTISRDNAKNTVYLQMNSLKPEYTSVYYCNARPVYLLEGYYWGQGTQVTVSS | low polyreactivity
20 | QVQLVESGGGLVQAGGSLRLSCAASGRTFATNAMGWYRQAPGKERELVADISGGGSTYYADSVKGRFTISRDNAKNTVYLQMNSLKPEDTAVYYCAARDYHWFQWYDYWGQGTQVTVSS | low polyreactivity
21 | QVQLVESGGGLVQAGGSLRLSCAASGLTFAYYDMGWYIQAPGKEREMVAAITSGGTTNYADSVKGSFTISRDNANNTVYFQMNSLKPEDTAVYYCNADYYSRIVGVRIYEYWGQGTQVTVSS | low polyreactivity
22 | QVQLVESGGGLVQAGGSLRLSCAASGSTFIGYAMGWYRQAPGKERELVAGIRWSGGRTYYADSVKGRFTISRDNAKNTVYLHMNSLKPEDTAVYYCNARFYASAKGYDYWGQGTQVTVSS | low polyreactivity

Row | Sequence | polyreactivity (PSR sort gate)
23 | QVQLVESGGGLVQAGGSLRSSCAASGSIFQYYALGWYRQAPGNERELVAAISSGGRTNYADSVKGRFTISRDNAKNTVYLQMNSLKPEDTAVYYCAAARYYYQVYRWEYDYWGQGTQVTVSS | high polyreactivity
24 | QVQLVESGGGLVQAGGILLLSCAASGGTFENYAMGWYIQAPGKERELVAAISSGGSTNYADSVKGRFTISRDNAKNTVYLQMNRLKPEDTAVYYCARYRVWGSNGHKLFHYDYWGQGTQVTVSS | low polyreactivity
25 | QVQLVESGGGLVQAGGSLRLSCAASGRTFYQYAMGWYRQAPGKERELVAAITTSGGSTYYADSVKGRFTISRDNAKNTVYLQMNSLKPEDTAVYYCAAPYTGYRERGSYKSDYWGQGTQVTVSS | low polyreactivity
26 | QVLLVESGGGIVQAGGSLRLSCAASGIIFYVNAMGWYRQAPGKERELVAAITFGGDSTYYADSVKGRFTISRDNAKNTVYLQMNSLKPEDTAVYYCATDGDPAYPEMEYWGQGTQVTVSS | low polyreactivity
27 | QVQLVESGGGLVQAGGSLRLSCAASGIIFRYYAMGWYRQAPGKERELVAAISRGGSTYYADSVKGRFTISRDNAKNTVYLQMNSLKPEDTAVYYCAATSYRRTGYNYWGQGTQVTVSS | high polyreactivity
28 | QVQLVESGGGLVQAGGSLRLSCAASGRIFLKYAMGWYRHAPGKERELVAAISLSTGSTYYADSVKGRFTISRDNAKNTVYLQMNSLKAEDTAVYYCAATRKYRYVYWGQGTQGTVSS | high polyreactivity
29 | QVQLVESGGGLVQAGGSLRLSCAASGSIFVLNAMGWYTQAPGKERELVAAINKSGGRTYYADSVKGRFTISRDNAKNTVYLQMNSLKPEDTAVDYCAVDISVTGSSNRYGYWGQGTQVTVSS | high polyreactivity
30 | QVQLVETGGGLVQAGGSLRLSCAASGFTFNNYAMGWYRQAPGTERELVAAISWSGGRTYYPDSVMGRFTISSDNAKNTVYLQMNSLNTEDTAVYYCAADFSGSVDYWGQGTQVTVSS | high polyreactivity
31 | QVQLVESGGGLVQAGGSLRLSCAASGRIFTGNAMGWYRQAPGTERELVAAITKSGGSTYYADSVKGRFTISRDNAKNTVYLQMNSLKPEDTAVYYCAATRYLHYVYKYGYWGQGTQVTVSS | high polyreactivity
32 | QVQLVESGGGLVQAGGSLRLSCAASAITYAYYPMGWYRQAPGKETELVAGITDVGSTNYADSVKGRFTLSRDNAKNTVYLQMNSLKPEDTAGYYCAAEYDGPYYSFYPEQRYYWGQGTQVTVSS | low polyreactivity
33 | QVQLVESGGGLVQAGGSLRLSCAASGSTFRSNAMGWYRQAPGKESELVAAITRRGSTYYADSVKGRFTISRDNAKNTVYLQMNSVKPEDTAVYYCAARVPGYASGASGYSSYRYEYWGQGTQVTVSS | high polyreactivity
34 | QVQLVESGGGLVQAGGSLRLSCAASGSIFEINAMGWYRQAPGKERELVAAITGSGGSTHYADSVKGRFTISRDTAKNTVYLQMNSLKPEDTAVYYCAADICYFTKYGYWGQGTQVTVSS | low polyreactivity
35 | QDHLVESGGGLVQAGGSLRLSCSASGSNFRSYAMGWYRQAPGKERELVAAITWSGGRTYYADSVKGRFTISRDNAKNTVYLQMNSLKPEDTAVYYCNAVYLAYGGAYWGQGTQVTVSS | high polyreactivity
36 | QVQLVESGGGLVQAGGSLRLSCAASGITFDGYAMGWNTQAPGKEREFVAAITWNGGSTYYADSVKGRFTISRDNAKNTVYLQMNSLKPEDTAVYYCNADPFTGYDYWGQGTQVTVSS | low polyreactivity
37 | QVQLVESGGGLVQAGGSLRLSCAASGIIFYGYVMGWYRQAPGKERELVATITSSGGSTYYADSVKGRFTISRDNAKNSVYLQMNSLKPEDTAVYYCAADYYYGAWVRHDYWGQGTQVTVSS | low polyreactivity
38 | QVQLVESGGGLVQAGGSLRLSSAASGRTFTHYAMGWYSQAPGKERELGASISDGGRTHYADSVKGRFTISRDNAKNTVSLQMNSLKPVDPAVYYCATDRYPTRRYDYWGQGSQVTVSS | low polyreactivity
39 | QVQLVESGGGLVQAGGSLRLSCAASGRIFPPNAMGWYRQAPGKERELVAGITSSGDTTYYADSVKGRFTISRDNAKNTVYLQMNSLKPEDTAVYYCAKDEVYADDRSALFDYWGQGTQVTVSS | low polyreactivity
40 | QVQLVESGGGLVQAGGSLRLSCAASGSIFNANAMGLYIQAPGKERELVASISGGAGSTYYADSVKGRFTISRDNAKNTVYLQMNSLKPEDTAVYYCNARWQEPLKYDYWGQGTQVTVSS | low polyreactivity
41 | QVQHVESGGGIVQAGGSLRLTCAASGSTFGGNGMGWYRQAPGKEREFVATNTWRSVSTYYADSVKGRFTISRDNAKNTDFLQMISLKPEDTAVYYCAARLYRFASYRMDYWGQGTQVTVSS | high polyreactivity
42 | QVQLVESGGGLVQAGGSLRLSCPASGRIFVRNAMGWYRQAPGKERELVAAITTSGGRTYYADSVKGRFTISRDLAKNPVYLQMNSLKPEDTAVYYCAAETRYRNFPYYYWGQCTQVTVSS | high polyreactivity
43 | QDQLVETGGGLVQAGGSLRLSCAASGRIFAYNSMGWYRQAPGKERELVAAISWSGSSTYYADSVKGRFTISRDNAKNTVYLHMNCLKPEDTAVYYCAATPWYYYSTSYAYYYWGQGTQVTVSS | high polyreactivity
